According to US20240368309A1 (Hoffmann-La Roche, published 2024):
Where a chain is given by its changes, count along the chain named.

Assays:
[1] = biological target: T1, biotinylated monovalent EpCAM-Fc (human EpCAM ECD-Fc knob avi-his paired with Fc hole) (human, UniProt P01857 104-328 = IgG part, biotin on the avi tag (BirA co-expression)); assay: SPR ProteOn XPR36 off-rate, biotinylated monovalent EpCAM-Fc on NLC chip
T1 construct: also called monovalent EpCAM-Fc construct; huEPCAM-Fc-knob (avi-His) + Fc hole (wt)

[2] = biological target: T1, biotinylated monovalent EpCAM-Fc (human …); assay: SPR ProteOn XPR36 off-rate, biotinylated monovalent EpCAM-Fc on NLC chip, supernatant
[3] = biological target: T2, human CD28 on CHO cells (CHO-k1 ATCC #CCL-61 modified to stably overexpress human CD28) (human, UniProt P10747 19-220); assay: flow cytometry, CHO-k1-huCD28 cells; PE-labelled goat anti-human detection; fluorescence intensity [PE] against concentration (nM)
T2 construct: also called CHO-k1-huCD28 cells; hu CD28

[4] = biological target: T3, human EpCAM on tumor cells (KATO-III, HT-29, MKN45, NCI-H1755) (human, UniProt P16422 24-314); assay: flow cytometry on EpCAM-expressing HT-29 cells
T3 construct: endogenous EpCAM of human tumor cell lines; also called epithelial cell adhesion molecule
T3 sequence: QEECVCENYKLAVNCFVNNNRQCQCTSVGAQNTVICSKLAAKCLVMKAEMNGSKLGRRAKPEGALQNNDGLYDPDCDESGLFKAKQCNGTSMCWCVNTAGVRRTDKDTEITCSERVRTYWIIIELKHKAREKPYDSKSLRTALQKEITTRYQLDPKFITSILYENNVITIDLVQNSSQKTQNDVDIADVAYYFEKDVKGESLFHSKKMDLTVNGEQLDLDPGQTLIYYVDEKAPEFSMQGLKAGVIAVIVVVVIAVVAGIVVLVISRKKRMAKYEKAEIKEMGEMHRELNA

[5] = biological target: T3, human EpCAM on tumor cells (KATO-III, …); assay: cell-based or functional assay
[6] = biological target: T3, human EpCAM on tumor cells (KATO-III, …); assay: flow cytometry, KATO-III cells (EpCAM+); PE-labelled goat anti-human detection; fluorescence intensity [PE] against concentration (nM)
[7] = biological target: T3, human EpCAM on tumor cells (KATO-III, …); assay: flow cytometry, KATO-III cells (EpCAM+); PE-labelled goat anti-human detection; fluorescence intensity [PE] against concentration (nM); CD19-targeted negative control
[8] = biological target: T2, human CD28 on CHO cells (CHO-k1 ATCC …); assay: flow cytometry, CHO-k1 cells stably overexpressing human CD28; monovalent one-armed IgG from supernatant, PE-labelled goat anti-human detection; MFI (PE) against c [nM]

B1: parental murine anti-human EpCAM antibody MOC31 (antibody, V domains shown)
VH: QVQLQQSGPELKKPGETVKISCKASGYTFTNYGMNWVKQAPGRGLKWMGWINTYTGESTYADDFKGRFAFSLETSASAAYLQINNLKNEDTATYFCARFAIKGDYWGQGTTLTVSS
VL: DIVMTQSAFSNPVTLGTSASISCRSTKSLLHSNGITYLYWYLQKPGQSPQLLIYQMSNLASGVPDRFSSSGSGTDFTLRISRVEAEDVGVYYCAQNLEIPRTFGGGTKLEIK
koff [1]: 0.00024 s⁻¹

B2: Monovalent EpCAM (GG07_VH x GG04_VL) (antibody, IgG1, V domains shown)
VH: QVQLVQSGSELKKPGASVKVSCKASGYTFTNYGMNWVRQAPGQGLEWMGWINTYTGESTYAQGFTGRFVFSLDTSVSTAYLQISSLKAEDTAVYFCARFARSGDYWGQGTLVTVSS
VL: DIQMTQSPSSLSASVGDRVTITCRASQSISSYLYWYQQKPGKAPKLLIYQASSLQSGVPSRFSGSGSGTDFTLTISSLQPEDFATYYCAQNLEIPRTFGQGTKLEIK
notes: one-armed hu IgG1 PG-LALA, VH/VL-crossed Fab on Fc hole plus empty Fc knob; from supernatant
binding result [2]: no binding (tested: 50 nM)

B3: Monovalent EpCAM (GG01_VH x GG07_VL) (antibody, IgG1, V domains shown)
VH: B2 VH with R101I, S102K
VL: EIVLTQSPGTLSLSPGERATLSCRASQSINNYLYWYQQKPGQAPRLLIYQMSNRATGIPDRFSGSGSGTDFTLTISRLEPEDFAVYYCAQNLEIPRTFGQGTKLEIK
notes: as for B2
binding result [2]: no binding (tested: 50 nM)

B4: Monovalent EpCAM (GG07_VH x GG07_VL) (antibody, IgG1, V domains shown)
VH: B2 VH
VL: B3 VL
notes: as for B2
binding result [2]: no binding (tested: 50 nM)

B5: EpCAM (4D5MOC-B)-CD28 (SA_variant 8) 1+1 (bispecific antibody, human IgG1, kappa, L234A L235A)
heavy 1: not shown
light 1: QVQLVQSGAEVKKPGASVKVSCKASGYTFTSYYIHWVRQAPGQGLEWIGSIYPGNVQTNYNEKFKDRATLTVDTSISTAYMELSRLRSDDTAVYFCTRSHYGLDFNFDVWGQGTTVTVSSASVAAPSVFIFPPSDEQLKSGTASVVCLLNNFYPREAKVQWKVDNALQSGNSQESVTEQDSKDSTYSLSSTLTLSKADYEKHKVYACEVTHQGLSSPVTKSFNRGEC
heavy 2: EVQLVQSGPGLVQPGGSVRISCAASGYTFTNYGMNWVKQAPGKGLEWMGWINTYTGESTYADSFKGRFTFSLDTSASAAYLQINSLRAEDTAVYYCARFAIKGDYWGQGTLLTVSSASTKGPSVFPLAPSSKSTSGGTAALGCLVEDYFPEPVTVSWNSGALTSGVHTFPAVLQSSGLYSLSSVVTVPSSSLGTQTYICNVNHKPSNTKVDEKVEPKSCDKTHTCPPCPAPEAAGGPSVFLFPPKPKDTLMISRTPEVTCVVVDVSHEDPEVKFNWYVDGVEVHNAKTKPREEQYNSTYRVVSVLTVLHQDWLNGKEYKCKVSNKALGAPIEKTISKAKGQPREPQVCTLPPSRDELTKNQVSLSCAVKGFYPSDIAVEWESNGQPENNYKTTPPVLDSDGSFFLVSKLTVDKSRWQQGNVFSCSVMHEALHNHYTQKSLSLSP
light 2: DIQMTQSPSSLSASVGDRVTITCRSTKSLLHSNGITYLYWYQQKPGKAPKLLIYQMSNLASGVPSRFSSSGSGTDFTLTISSLQPEDFATYYCAQNLEIPRTFGQGTKVELKRTVAAPSVFIFPPSDRKLKSGTASVVCLLNNFYPREAKVQWKVDNALQSGNSQESVTEQDSKDSTYSLSSTLTLSKADYEKHKVYACEVTHQGLSSPVTKSFNRGEC
notes: huIgG1 PG-LALA CrossFab; VH/VL exchange in CD28 Fab (knob), charged modifications in EpCAM Fab (hole); also called Molecule F; P1AF5980
binding result [3]: binds
EC50 [4]: 3.44 nM
EC50, IL2 reporter cell assay with HT-29 cells and 10 nM anti-CD3 OKT3 [5]: 0.203 nM
EC50 (read off the curve) [6]: ~10 nM

B6: EpCAM (MT201)-CD28 (SA_variant 15) 1+1 (bispecific antibody, human IgG1, kappa, L234A L235A)
heavy 1: not shown
light 1: B5 light 1 with F105W
heavy 2: not shown
light 2: ELQMTQSPSSLSASVGDRVTITCRTSQSISSYLNWYQQKPGQPPKLLIYWASTRESGVPDRFSGSGSGTDFTLTISSLQPEDSATYYCQQSYDIPYTFGQGTKLEIKRTVAAPSVFIFPPSDRKLKSGTASVVCLLNNFYPREAKVQWKVDNALQSGNSQESVTEQDSKDSTYSLSSTLTLSKADYEKHKVYACEVTHQGLSSPVTKSFNRGEC
notes: huIgG1 PG-LALA CrossFab; VH/VL exchange in CD28 Fab (knob), charged modifications in EpCAM Fab (hole); also called Molecule A; P1AE9051
EC50 (read off the curve) [3]: ~6 nM

B7: Monovalent EpCAM (GG04_VH x GG07_VL) (antibody, IgG1, V domains shown)
VH: EVQLVQSGAEVKKPGESLKISCKGSGYSFTNYGMNWVRQMPGKGLEWMGWINTYTGESTYSPSFQGQVTISADKSISTAYLQWSSLKASDTAMYFCARFAIKGDYWGQGTLVTVSS
VL: B3 VL
notes: as for B2
binding result [2]: no binding (tested: 50 nM)

B8: CD19 (8B8-2B11)-CD28 (SA_variant 8) 1+1 (bispecific antibody, human IgG1, kappa, L234A L235A)
heavy 1: not shown
light 1: not shown
heavy 2: DIVMTQTPLSLSVTPGQPASISCKSSQSLETSTGTTYLNWYLQKPGQSPQLLIYRVSKRFSGVPDRFSGSGSGTDFTLKISRVEAEDVGVYYCLQLLEDPYTFGQGTKLEIKSSASTKGPSVFPLAPSSKSTSGGTAALGCLVKDYFPEPVTVSWNSGALTSGVHTFPAVLQSSGLYSLSSVVTVPSSSLGTQTYICNVNHKPSNTKVDKKVEPKSCDKTHTCPPCPAPEAAGGPSVFLFPPKPKDTLMISRTPEVTCVVVDVSHEDPEVKFNWYVDGVEVHNAKTKPREEQYNSTYRVVSVLTVLHQDWLNGKEYKCKVSNKALGAPIEKTISKAKGQPREPQVCTLPPSRDELTKNQVSLSCAVKGFYPSDIAVEWESNGQPENNYKTTPPVLDSDGSFFLVSKLTVDKSRWQQGNVFSCSVMHEALHNHYTQKSLSLSP
light 2: QVQLVQSGAEVKKPGASVKVSCKASGYTFTDYIMHWVRQAPGQGLEWMGYINPYNDGSKYTEKFQGRVTMTSDTSISTAYMELSRLRSDDTAVYYCARGTYYYGPQLFDYWGQGTTVTVSSASVAAPSVFIFPPSDEQLKSGTASVVCLLNNFYPREAKVQWKVDNALQSGNSQESVTEQDSKDSTYSLSSTLTLSKADYEKHKVYACEVTHQGLSSPVTKSFNRGEC
notes: control; huIgG1 PG-LALA CrossFab; charged modifications in CD28 Fab (knob), VH/VL exchange in CD19 Fab (hole); also called Molecule H; P1AF0175
binding result [7]: no binding (tested: 500 nM)

B9: CD28(SA)_variant_9 (antibody, human IgG1, kappa, L234A L235A)
heavy: not shown
light: not shown
chain: DKTHTCPPCPAPEAAGGPSVFLFPPKPKDTLMISRTPEVTCVVVDVSHEDPEVKFNWYVDGVEVHNAKTKPREEQYNSTYRVVSVLTVLHQDWLNGKEYKCKVSNKALGAPIEKTISKAKGQPREPQVCTLPPSRDELTKNQVSLSCAVKGFYPSDIAVEWESNGQPENNYKTTPPVLDSDGSFFLVSKLTVDKSRWQQGNVFSCSVMHEALHNRFTQKSLSLSP
notes: one-armed (monovalent) hu IgG1 PG-LALA, empty Fc hole; tested from supernatant; also called P1AE3065
binding result [8]: binds
